Source: US20200002710A1, “SYSTEMS AND METHODS FOR CONTROL OF GENE EXPRESSION” (TRUSTEES OF BOSTON UNIVERSITY, published 2020)

Columns and labels:
[1] = molecular target: T1, 42-10 (ZF2) low affinity synTF (artificial, R-to-A backbone (low affinity allele, already in ref)); assay: FP; fluorescence anisotropy; Zn2+, 25 C; details: tags: N-terminal MBP; C-terminal GS linker + syntrophin ligand S5 (VKESLV)
T1 chain: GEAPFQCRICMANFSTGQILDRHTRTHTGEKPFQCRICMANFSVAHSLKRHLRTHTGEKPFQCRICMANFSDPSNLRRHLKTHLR
Procedure: (§1) All assays were conducted in 20 mM Tris, pH 7.5, 100 mM […], 50 μM ZnCl2 buffer at 25° C. Proteins, probes, and competitor oligos were added to a final volume of 300 μL. Probes were used at 10 nM in all experiments. For complex assembly experiments (FIG. 1C), indicated concentrations of MBP-ZF₄₃₋₈ harboring a VSKESLV* ligand (SEQ ID NO: 120) (see e.g., FIG. 5A-FIG. 5B, FIG. 7A-FIG. 7B) were titrated against 5 μM concentrations of clamp. Mixtures were allowed to equilibrate at 25° C. for 10 min in Costar black 96-well plates prior to reading. Fluorescence anisotropy (FA) measurements were made at 494 nm using a SpectraMax M5 (Molecular Devices) fluorescence plate reader. For all measurements, anisotropy (r) was calculated using the following equation, wherein I_{∥} and I_{⊥} are parallel and perpendicular fluorescence, respectively:
(§2) TF-DBM binding constants were measured in vitro by fluorescence anisotropy (FA). Recombinant proteins were purified and DBM oligos prepared as described herein. […] Affinities for the interaction were measured as a function of the increase in fluorescence anisotropy resulting from binding of the fusion to a fluorescently labeled (FITC) oligo probe (data not shown). Oligo probe binding to ZF affinity variants was measured. MBP-ZF was titrated against 10 nM oligo probe. […] Kd values were extracted by fitting data to a quadratic binding equation (data not shown). Competition binding experiments were performed to measure binding constants for DBM affinity variants. […] Competitor oligo Kₐ values were extracted by fitting data (converted to fraction probe bound) to a cubic equation describing competitive binding (see e.g., FIG. 6). Sequences for both sets of DBM affinity variants are listed on the right of FIG. 6.

[2] = molecular target: T2, 42-10 (ZF2) high affinity synTF (artificial); assay: FP; fluorescence anisotropy; Zn2+, 25 C; details: tags: N-terminal MBP; C-terminal GS linker + syntrophin ligand S5 (VKESLV)
T2 chain: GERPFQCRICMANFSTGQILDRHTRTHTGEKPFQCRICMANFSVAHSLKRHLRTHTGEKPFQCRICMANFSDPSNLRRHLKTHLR
Procedure: as §1, §2

B1: 42-10 DBM1 (dsDNA)
DNA 1: AGACGCTGCTC
DNA 2: GAGCAGCGTCT
Kd [1]: 15 nM
Kd [2]: 2.4 nM
